How the values were obtained:
[1] = target: nectin-1 (human (endogenous in primary tonsil epithelial cells)) (UniProt Q15223)
[2] = target: nectin-1 (human (endogenous in primary tonsil epithelial cells)) (UniProt Q15223); remark: listed apart in the source

UniProt Q15223, sequence (Q15223 31-517): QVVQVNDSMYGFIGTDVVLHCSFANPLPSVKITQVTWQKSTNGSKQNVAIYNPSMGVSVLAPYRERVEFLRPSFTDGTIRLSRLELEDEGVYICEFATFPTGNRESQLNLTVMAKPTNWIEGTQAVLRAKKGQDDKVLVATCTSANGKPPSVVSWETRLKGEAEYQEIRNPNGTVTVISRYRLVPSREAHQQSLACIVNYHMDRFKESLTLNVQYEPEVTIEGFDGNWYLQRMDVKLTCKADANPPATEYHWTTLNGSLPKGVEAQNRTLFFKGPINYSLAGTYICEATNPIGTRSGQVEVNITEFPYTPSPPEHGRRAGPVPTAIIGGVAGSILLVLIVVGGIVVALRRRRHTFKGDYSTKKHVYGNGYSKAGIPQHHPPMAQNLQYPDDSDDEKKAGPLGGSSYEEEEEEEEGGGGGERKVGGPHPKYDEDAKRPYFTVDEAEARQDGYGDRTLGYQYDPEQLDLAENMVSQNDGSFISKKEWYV

In the case of “truncated form of HSV-1 gD ectodomain gD(306t) (domain or fragment)”, the HSV-1 infection (percent of infected cells, 24 h) of polarized tonsil cells treated with active tat/gp120 or HIV virions; reduction by preincubation with anti-nectin-1 antibody CK-8 (10 µg/ml) [1] is reported as 70%, the HSV-1 plaque numbers in polarized tonsil cells treated with active tat/gp120; reduction by anti-gD antibodies (10 µg/ml) [2] is reported as 30% and the HSV-1 plaque numbers in polarized tonsil cells treated with active tat/gp120; reduction by anti-nectin-1 antibodies (10 µg/ml) [2] is reported as 40%. It also gave an HSV-1 plaque numbers in polarized tonsil cells treated with active tat/gp120; reduction by the combination of anti-gD and anti-nectin-1 antibodies [2] of 60%, an HSV-1 plaque size (infected cells per plaque, cell-to-cell spread) in polarized tonsil cells treated with active tat/gp120; reduction by anti-gD antibodies (10 µg/ml) [2] of 60% and an HSV-1 plaque size (infected cells per plaque, cell-to-cell spread) in polarized tonsil cells treated with active tat/gp120; reduction by anti-nectin-1 antibodies (10 µg/ml) [2] of 50%. The HSV-1 plaque size (infected cells per plaque, cell-to-cell spread) in polarized tonsil cells treated with active tat/gp120; reduction by the combination of anti-nectin-1 and anti-gD antibodies [2] was 70%.

From article PMC3931628
